The numbers were not newly measured in article PMC8152036, which cites them from elsewhere.

As usually defined, the Kd is the concentration at which binding is half-saturated.

Holding throughout (assay): SPR
Background: SPR reads the build-up and loss of mass on a sensor chip optically.

The target in one data set is PfkA (Bacillus subtilis) (UniProt O34529).
Data set [1] has as its target RNase Y (Bacillus subtilis) (UniProt O31774).
For data set [2], the target named is RNase J1 (Bacillus subtilis) (UniProt Q45493).
UniProt Q45493, sequence (Q45493 whole entry): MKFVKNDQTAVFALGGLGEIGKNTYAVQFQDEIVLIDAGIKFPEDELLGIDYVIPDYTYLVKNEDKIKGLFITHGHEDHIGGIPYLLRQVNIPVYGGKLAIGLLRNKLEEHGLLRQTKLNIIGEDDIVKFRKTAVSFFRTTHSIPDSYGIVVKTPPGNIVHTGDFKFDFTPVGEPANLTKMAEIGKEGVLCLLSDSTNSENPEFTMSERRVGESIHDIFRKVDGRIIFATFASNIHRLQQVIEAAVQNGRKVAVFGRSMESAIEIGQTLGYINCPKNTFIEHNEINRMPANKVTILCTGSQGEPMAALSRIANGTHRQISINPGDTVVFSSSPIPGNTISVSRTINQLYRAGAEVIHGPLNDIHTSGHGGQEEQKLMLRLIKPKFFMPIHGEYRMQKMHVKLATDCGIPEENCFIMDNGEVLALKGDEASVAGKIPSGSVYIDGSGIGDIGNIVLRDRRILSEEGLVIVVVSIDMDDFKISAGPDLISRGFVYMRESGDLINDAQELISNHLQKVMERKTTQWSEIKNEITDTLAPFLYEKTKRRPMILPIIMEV

UniProt O31774, sequence (O31774 whole entry): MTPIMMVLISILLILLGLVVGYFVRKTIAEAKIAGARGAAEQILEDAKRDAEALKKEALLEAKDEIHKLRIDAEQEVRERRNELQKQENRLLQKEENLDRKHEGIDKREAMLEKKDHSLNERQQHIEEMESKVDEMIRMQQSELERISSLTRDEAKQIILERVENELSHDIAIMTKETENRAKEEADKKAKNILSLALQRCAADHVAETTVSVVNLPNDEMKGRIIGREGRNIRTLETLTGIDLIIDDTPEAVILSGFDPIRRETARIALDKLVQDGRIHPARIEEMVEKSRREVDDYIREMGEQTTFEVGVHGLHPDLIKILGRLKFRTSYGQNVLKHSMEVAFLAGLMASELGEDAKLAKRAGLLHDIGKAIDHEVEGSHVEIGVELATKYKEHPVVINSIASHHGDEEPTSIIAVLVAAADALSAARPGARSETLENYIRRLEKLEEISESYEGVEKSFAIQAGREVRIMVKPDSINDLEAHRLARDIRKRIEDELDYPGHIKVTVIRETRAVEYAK
UniProt O34529, sequence (O34529 whole entry): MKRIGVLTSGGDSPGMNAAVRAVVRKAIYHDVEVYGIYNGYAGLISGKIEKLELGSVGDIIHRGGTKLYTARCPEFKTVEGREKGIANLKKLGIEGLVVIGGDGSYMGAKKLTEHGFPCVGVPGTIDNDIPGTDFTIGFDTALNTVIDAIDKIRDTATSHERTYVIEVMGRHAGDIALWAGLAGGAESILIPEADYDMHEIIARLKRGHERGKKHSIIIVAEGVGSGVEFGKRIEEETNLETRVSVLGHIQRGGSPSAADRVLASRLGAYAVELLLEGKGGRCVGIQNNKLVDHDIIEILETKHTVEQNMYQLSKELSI

As to Enolase (from UniProt P37869), the Kd with PfkA (Bacillus subtilis) was 40 nM; in data set [1], 100 nM.

On to PNPase (from UniProt P50849), for which the Kd in data set [2] is 250 nM; in data set [1] it was 5 nM.
